Experimental findings from article PMC8034618 are described below.

The data set relates to LARP1 C-terminal fragment (extended DM15) WT (Homo sapiens). Put plainly: EMSA. As to conditions: m7Gppp cap; EMSA: 20 mM Tris-HCl pH 8, 150 mM NaCl, 10% glycerol, 1 mM DTT, 0.5 ug tRNA, 1 ug BSA in 10 ul; on ice 30 min; 7-8% native 0.5x TBE gel at 4 C; RNA <=200 pM. On the technique in general: In EMSA bound probe runs differently from free probe, usually more slowly.

As for m7G-RPS6-UTR (capped RPS6 20-mer), the Kd (commonly the free concentration of one partner at which half of the binding sites on the other are occupied at equilibrium, for simple one-to-one binding) was determined as 153 nM.
